Experimental data as given in the RNAGym collection of RNA variant scans (doi:10.1021/acssynbio.7b00057).

B1: Pistol ribozyme (parent)
chain: GGGUCGUUGUUCCAUAAUCGCGUGGAUAUGGCACGCAAGUUUCUACCGGGCACCGUAAAUGUCCGACUGGAGCCGUUCGGGCGGCUAUAAACAGACCUCAGGCCCGAAGCGUGGCGGCACCUGCCGCCGGUGGUAAAAAAGAUCGGAAGAGCACACGUCU

Variants of: B1
Test: aptazyme ON/OFF ratio, guanine; higher = stronger switching; co-transcriptional cleavage with and without guanine

Variant | aptazyme ON/OFF ratio
U7G C12G C13G | 1.14
U7G C12G C13A | 1.08
U7G C12G C13U | 1.17
U7G G9A U10A U11A C12A C13A | 1.07
U7G G9A U10A U11A C12A C13U | 1.11
U7G G9A U10A U11A C12A C13G | 1.13
U7G G9A U10G U11A | 1.05
U7G G9A U10G U11C | 1.04
U7G G9A U10G U11G | 1.09
U7G G9A U10A U11A C12G | 1.2
U7G G9A U10A U11A C12A | 1.1
U7G G9A U10A U11A C12U | 1.2
U7G G9A U10A U11C C12A C13A | 1.13
U7G G9A U10A U11C C12A C13U | 1.21
U7G G9A U10A U11C C12A C13G | 1.1
U7G G9A U10G U11A C13U | 1.07
U7G G9A U10G U11A C13A | 1.05
U7G G9A U10G U11A C13G | 1.06
U7G G9A U10C U11C C12G C13U | 1.03
U7G G9A U10C U11C C12G C13A | 1.1
U7G G9A U10C U11C C12G C13G | 1.05
U7G G9A C12U C13U | 1.18
U7G G9A C12U C13A | 1.14
U7G G9A C12U C13G | 1.15

Variant | aptazyme ON/OFF ratio
U7G G9A U10A U11G C12U C13G | 1.09
U7G G9A U10A U11G C12U C13A | 1.07
U7G G9A U10A U11G C12U C13U | 1.11
U7G G9A U10G U11A C12A C13G | 1.05
U7G G9A U10G U11A C12A C13A | 1.06
U7G G9A U10G U11A C12A C13U | 1.09
U7G G9A U10G U11A C12G C13G | 1.11
U7G G9A U10G U11A C12G C13U | 1.05
U7G G9A U10G U11A C12G C13A | 1.12
U7G G9C U10A | 3.1
U7G G9A U10G U11G C12U C13U | 1.1
U7G G9A U10G U11G C12U C13G | 1.12
U7G G9A U10G U11G C12U C13A | 1.09
U7G G9A U11G C12A C13U | 1.07
U7G G9A U11G C12A C13A | 1.06
U7G G9A U11G C12A C13G | 1.07
U7G G9A U10G U11C C12A C13U | 1.1
U7G G9A U10G U11C C12A C13A | 1.09
U7G G9A U10G U11C C12A C13G | 1.06
U7G G9C U10A U11A C12A | 1.46
U7G G9C U10A U11A C12G | 1.7
U7G G9C U10A U11A C12U | 1.65
U7G G9A U10G U11A C12U C13G | 1.05
U7G G9A U10G U11A C12U C13U | 1.07

Variant | aptazyme ON/OFF ratio
U7G G9A U10G U11A C12U C13A | 1.1
U7G G9C C12G C13A | 1.3
U7G G9C C12G C13G | 1.26
U7G G9C C12G C13U | 1.43
U7G G9A U10C U11C C12G | 1.17
U7G G9A U10C U11C C12A | 1.26
U7G G9A U10C U11C C12U | 1.07
U7G G9A U10C U11G C12G C13G | 1.06
U7G G9A U10C U11G C12G C13A | 1.09
U7G G9A U10C U11G C12G C13U | 1.06
U7G G9A U10C U11G C12A C13U | 1.11
U7G G9A U10C U11G C12A C13G | 1.1
U7G G9A U10C U11G C12A C13A | 1.07
U7G G9C U10A U11C C12G C13A | 1.16
U7G G9C U10A U11C C12G C13U | 1.29
U7G G9C U10A U11C C12G C13G | 1.06
U7G G9A U10C U11A C12G C13G | 1.07
U7G G9A U10C U11A C12G C13A | 1.11
U7G G9A U10C U11A C12G C13U | 1.12
U7G G9A U10A U11G C12G C13G | 1.14
U7G G9A U10A U11G C12G C13A | 1.09
U7G G9A U10A U11G C12G C13U | 1.22
U7G G9A U10G C12U | 1.14
U7G G9A U10G C12G | 1.09

Variant | aptazyme ON/OFF ratio
U7G G9A U10G C12A | 1.09
U7G G9C U10A U11A C12U C13U | 1.29
U7G G9C U10A U11A C12U C13G | 1.25
U7G G9C U10A U11A C12U C13A | 1.29
U7G G9A U10G U11G C12A C13U | 1.1
U7G G9A U10G U11G C12A C13A | 1.03
U7G G9A U10G U11G C12A C13G | 1.09
U7G G9A U10G U11G C12G C13A | 1.11
U7G G9A U10G U11G C12G C13U | 1.16
U7G G9A U10G U11G C12G C13G | 1.16
U7G G9A U10G C12U C13G | 1.11
U7G G9A U10G C12U C13A | 1.11
U7G G9A U10G C12U C13U | 1.1
U7G G9A C13A | 1.24
U7G G9A C13U | 1.49
U7G G9A C13G | 1.11
U7G G9C C13A | 1.29
U7G G9C C13U | 1.45
U7G G9C C13G | 1.14
U7G G9A U10A C12A C13A | 1.06
U7G G9A U10A C12A C13U | 1.28
U7G G9A U10A C12A C13G | 1.14
U7G G9A U10C U11C C12A C13A | 1.11
U7G G9A U10C U11C C12A C13U | 1.12

Variant | aptazyme ON/OFF ratio
U7G G9A U10C U11C C12A C13G | 1.19
U7G C12U C13U | 1.36
U7G C12U C13G | 1.21
U7G C12U C13A | 1.21
U7G G9A U10C U11G C12U C13U | 1.14
U7G G9A U10C U11G C12U C13A | 1.11
U7G G9A U10C U11G C12U C13G | 1.11
U7G C12A C13U | 1.21
U7G C12A C13G | 1.11
U7G C12A C13A | 1.22
U7G G9A U11C C12A C13A | 1.1
U7G G9A U11C C12A C13G | 1.14
U7G G9A U11C C12A C13U | 1.26
U7G G9A C12G C13U | 1.18
U7G G9A C12G C13G | 1.1
U7G G9A C12G C13A | 1.13
U7G G9A U11C C12G C13U | 1.13
U7G G9A U11C C12G C13G | 1.07
U7G G9A U11C C12G C13A | 1.11
U7G G9C U10A U11A C12G C13G | 1.15
U7G G9C U10A U11A C12G C13U | 1.27
U7G G9C U10A U11A C12G C13A | 1.14
U7G G9A U10A U11A C12G C13U | 1.12
U7G G9A U10A U11A C12G C13A | 1.1

Variant | aptazyme ON/OFF ratio
U7G G9A U10A U11A C12G C13G | 1.19
U7G G9C U10A U11A C13G | 1.11
U7G G9C U10A U11A C13A | 1.31
U7G G9C U10A U11A C13U | 1.45
U7G G9A U10G C12A C13G | 1.15
U7G G9A U10G C12A C13A | 1.08
U7G G9A U10G C12A C13U | 1.08
U7C U11G C13U | 1.03
U7C U11G C13A | 1.06
U7C U11G C13G | 1.03
U7G G9A U10C U11A C12A C13U | 1.09
U7G G9A U10C U11A C12A C13G | 1.09
U7G G9A U10C U11A C12A C13A | 1.11
U7G G9A U10G U11C C12G | 1.1
U7G G9A U10G U11C C12U | 1.11
U7G G9A U10G U11C C12A | 1.12
U7G G9A U10A U11A C13A | 1.14
U7G G9A U10A U11A C13G | 1.09
U7G G9A U10A U11A C13U | 1.2
U7G G9A U11A | 2.46
U7G G9A U11G | 1.64
U7G G9A U11C | 1.17
U7G G9A U10C U11A C12A | 1.1
U7G G9A U10C U11A C12G | 1.15

Variant | aptazyme ON/OFF ratio
U7G G9A U10C U11A C12U | 1.18
U7G G9A U10A U11G C12A C13A | 1.05
U7G G9A U10A U11G C12A C13U | 1.12
U7G G9A U10A U11G C12A C13G | 1.08
U7G G9A U10G U11C C13G | 1.11
U7G G9A U10G U11C C13U | 1.08
U7G G9A U10G U11C C13A | 1.08
U7G G9A U10A C12U C13U | 1.22
U7G G9A U10A C12U C13A | 1.14
U7G G9A U10A C12U C13G | 1.24
U7G G9C U10A U11C C12U C13A | 1.33
U7G G9A U10C U11G C12A | 1.09
U7G G9A U10C U11G C12U | 1.19
U7G G9A U10C U11G C12G | 1.15
U7G G9A U11A C12G | 1.21
U7G G9A U11A C12U | 1.41
U7G G9A U11A C12A | 1.12
U7G G9A U10C U11C C13U | 1.02
U7G G9A U10C U11C C13G | 1.03
U7G G9A U10C U11C C13A | 1.04
U7G G9A U10C U11G | 1.68
U7G G9A U10C U11A | 2.37
U7G G9A U10C U11C | 1.04
